Positions count from the first letter of the chain named. Each block holds one molecule with its values, some of them ahead of it.
What was measured:
[1] = target: PD-L1 on PD-L1 target cells (Homo sapiens (Human)) (UniProt Q9NZQ7); assay: cell-based or functional assay
[2] = target: T1, human PD-L1-his tag protein (human, UniProt Q9NZQ7 19-238); assay: SPR (Biacore), affinity ranking, PDL1-His
T1 construct: also called human PD-L1-His protein; recombinant PD-L1 protein; not shown: his tag

[3] = target: T2, human PD-L1 over-expressed on CHOK1 cells (human, UniProt Q9NZQ7 19-290); assay: flow cytometry (MFI) on PDL1-CHOK1 cells; upper right panel
T2 construct: whole, on cells; also called PDL1-CHOK1 cells
T2 sequence (Q9NZQ7 19-290): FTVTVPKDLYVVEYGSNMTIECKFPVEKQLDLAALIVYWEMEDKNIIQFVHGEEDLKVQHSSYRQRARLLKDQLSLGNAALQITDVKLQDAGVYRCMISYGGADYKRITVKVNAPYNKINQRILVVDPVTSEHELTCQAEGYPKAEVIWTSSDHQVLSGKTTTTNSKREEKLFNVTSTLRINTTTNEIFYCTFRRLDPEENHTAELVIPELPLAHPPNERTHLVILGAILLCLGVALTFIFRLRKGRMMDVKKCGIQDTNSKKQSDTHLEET
Protocol: (§1) To evaluate the antigen binding property, the humanized antibodies were analyzed for their binding to PD-L1 overexpressed on mammalian cells by FACS. Briefly, PDL1-CHOK1 cells were firstly incubated with 3-fold serious diluted humanized antibodies starting at 15 μg/ml at 4° C. for 40 mins. After washed by PBS, the Alexa Fluor® 647 AffiniPure Goat Anti-Human IgG (H+L) antibody was added to each well and incubated at 4° C. for 30 mins. The MFI of Alexa Fluor® 647 was evaluated by FACSCanto.

[4] = target: T1, human PD-L1-his tag protein; assay: SPR (Biacore T200), mAb captured on Protein A chip, PD-L1-his injected
Protocol: The binding of the humanized antibodies to recombinant PD-L1 protein (human PD-L1-his tag) was tested by Biacore using a capture method. […] A serial dilution of human PD-L1-his tag protein was injected over captured antibody for 2 mins at a flow rate of 30 μl/min. The antigen was allowed to dissociate for 1500 s. All the experiment were carried out on a Biacore T200.

human PD-L1-Fc protein [5] = target: T3, human PD-L1-Fc protein (human, UniProt Q9NZQ7 19-238); assay: ELISA, antibody titrated on coated human PD-L1-Fc, OD 450nm; upper left panel
T3 construct: coating antigen of the ELISAs; also called rhPD-L1-Fc; not shown: Fc
T3 sequence (Q9NZQ7 19-238 limits assumed): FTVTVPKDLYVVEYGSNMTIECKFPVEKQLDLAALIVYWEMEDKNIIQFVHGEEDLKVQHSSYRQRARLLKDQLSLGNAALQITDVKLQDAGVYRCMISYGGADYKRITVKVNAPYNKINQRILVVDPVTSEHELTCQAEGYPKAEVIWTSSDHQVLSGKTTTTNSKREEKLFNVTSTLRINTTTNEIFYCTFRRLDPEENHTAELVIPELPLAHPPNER
Protocol: (§2) To evaluate antigen binding activity, the humanized antibodies were subjected to ELISA test. Briefly, microtiter plates were coated with human PD-L1-Fc protein at 0.5 μg/ml in PBS, 100 μl/well at 4° C. overnight, then blocked with 200 μl/well of 1% BSA. Three-fold dilutions of humanized antibodies starting from 10 μg/ml were added to each well and incubated for 1 hour at 37° C. The plates were washed with PBS/Tween and then incubated with mouse-anti-human IgG Fab antibody conjugated with Horse Radish Peroxidase (HRP) for 1 hour at 37° C. After washing, the plates were developed with TMB substrate and analyzed by spectrophotometer at OD 450 nm.

human PD-L1-Fc protein [6] = target: T3, human PD-L1-Fc protein; assay: receptor blocking ELISA: coated human PD-L1-Fc, blocked ligand biotin-labeled human PD-1-Fc (Bio-PD1), OD 450nm; upper left panel
Protocol: (§3) Briefly, microtiter plates were coated with human PD-L1-Fc protein at 0.5 μg/ml in PBS, 100 μl/well at 4° C. overnight, then blocked with 150 μl/well of 1% BSA at 37° C. for 2 hours. […] The plates were washed with PBS/Tween and then incubated with Streptavidin-HRP for 10 mins at 37° C. After washing, the plates were developed with TMB substrate and analyzed by spectrophotometer at OD 450 nm.

human PD-L1-Fc protein [7] = target: T3, human PD-L1-Fc protein; assay: receptor blocking ELISA: coated human PD-L1-Fc, blocked ligand biotin-labeled human CD80-Fc (Bio-CD80), OD 450nm; upper left panel
Protocol: as §3

human PD-L1-Fc protein [8] = target: T3, human PD-L1-Fc protein; assay: receptor blocking ELISA: coated human PD-L1-Fc, blocked ligand biotin-labeled human PD-1-Fc (Bio-PD1), OD 450nm; upper right panel
Protocol: as §3

human PD-L1-Fc protein [9] = target: T3, human PD-L1-Fc protein; assay: receptor blocking ELISA: coated human PD-L1-Fc, blocked ligand biotin-labeled human CD80-Fc (Bio-CD80), OD 450nm; upper right panel
Protocol: as §3

[10] = target: T2, human PD-L1 over-expressed on CHOK1 …; assay: flow cytometry (MFI) on PDL1-CHOK1 cells; upper left panel
Protocol: as §1

human PD-L1-Fc protein [11] = target: T3, human PD-L1-Fc protein; assay: ELISA, antibody titrated on coated human PD-L1-Fc, OD 450nm; upper right panel
Protocol: as §2

human PD-L1-Fc protein [12] = target: T3, human PD-L1-Fc protein; assay: ELISA, antibody titrated on coated human PD-L1-Fc, OD 450nm; lower left panel
Protocol: as §2

human PD-L1-Fc protein [13] = target: T3, human PD-L1-Fc protein; assay: receptor blocking ELISA: coated human PD-L1-Fc, blocked ligand biotin-labeled human PD-1-Fc (Bio-PD1), OD 450nm; lower left panel
Protocol: as §3

human PD-L1-Fc protein [14] = target: T3, human PD-L1-Fc protein; assay: receptor blocking ELISA: coated human PD-L1-Fc, blocked ligand biotin-labeled human CD80-Fc (Bio-CD80), OD 450nm; lower left panel
Protocol: as §3

[15] = target: T2, human PD-L1 over-expressed on CHOK1 …; assay: flow cytometry (MFI) on PDL1-CHOK1 cells; lower right panel
Protocol: as §1

T1 sequence (Q9NZQ7 19-238 limits assumed): as above
PD-L1 on PD-L1 target cells (Homo sapiens (Human)), sequence (Q9NZQ7 19-290 limits assumed): as the sequence (Q9NZQ7 19-290) above

EC50, NFAT-RE-mediated luminescence, PD1 effector cells co-cultured with PD-L1 target cells [1]: 0.133 nM
Molecule: MPDL3280A (Atezolizumab), Human IgG1 (N297A)-Fc (antibody)

Kd [2]: 0.0379 nM
koff [2]: 9.75e-05 s⁻¹
kon [2]: 2.57e+06 M⁻¹ s⁻¹
EC50 [3]: 0.108 nM
Kd [4]: 0.0367 nM
koff [4]: 7.03e-05 s⁻¹
kon [4]: 1.92e+06 M⁻¹ s⁻¹
EC50 (human PD-L1-Fc protein [5]): 0.0132 mg/L
IC50 (human PD-L1-Fc protein [6]): 0.109 mg/L
IC50 (human PD-L1-Fc protein [7]): 0.282 mg/L
B1: Hu67F3G7-2 (antibody, V domains shown)
VH: EVQLVQSGAEVKKPGASVKVSCKASGYTFTDFWVSWVRQAPGQGLEWMGEIYPNSGVSRYNEKFKGRVTMTVDKSISTAYMELSRLRSDDTAVYYCTKYFGYTYWFGYWGQGTLVTVSS
VL: DIQMTQSPSSLSASVGDRVTITCRASKSVSTYMHWYQQKPGKAPKLLIYSASHLESGVPSRFSGSGSGTDFTLTISSLQPEDFATYYCQQSNELPVTFGGGTKVEIK
notes: humanized

Kd [2]: 0.0347 nM
koff [2]: 9.72e-05 s⁻¹
kon [2]: 2.8e+06 M⁻¹ s⁻¹
EC50 [3]: 0.167 nM
Kd [4]: 0.0371 nM
koff [4]: 7.74e-05 s⁻¹
kon [4]: 2.09e+06 M⁻¹ s⁻¹
EC50 (human PD-L1-Fc protein [5]): 0.0232 mg/L
IC50 (human PD-L1-Fc protein [8]): 0.158 mg/L
IC50 (human PD-L1-Fc protein [9]): 0.495 mg/L
B2: Hu67F3G7-3 (antibody, V domains shown)
VH: B1 VH with T28I, M48I
VL: B1 VL
notes: humanized

EC50 [10]: 0.175 nM
Kd [4]: 0.367 nM
koff [4]: 0.0009 s⁻¹
kon [4]: 2.45e+06 M⁻¹ s⁻¹
EC50 (human PD-L1-Fc protein [11]): 0.0117 mg/L
IC50 (human PD-L1-Fc protein [8]): 0.0354 mg/L
IC50 (human PD-L1-Fc protein [9]): 0.165 mg/L
B3: Hu47C6A3-2 (antibody, V domains shown)
VH: QVQLQESGPGLVKPSETLSLTCTVSGYSITSDYAWNWIRQPPGKGLEWIGYIIYSGSTSYNPSLKSRVTISRDTSKNQFSLKLSSVTAADTAVYYCARSTMIATNWFAYWGQGTLVTVSS
VL: DIQMTQSPSSLSASVGDRVTITCKASQDVSLAVAWYQQKPGKAPKLLIYWASTRHTGVPSRFSGSGSGTDFTLTISSLQPEDFATYYCQQHYITPWTFGGGTKVEIK
notes: humanized

EC50 [10]: 0.188 nM
Kd [4]: 0.444 nM
koff [4]: 0.000966 s⁻¹
kon [4]: 2.18e+06 M⁻¹ s⁻¹
EC50 (human PD-L1-Fc protein [12]): 0.015 mg/L
IC50 (human PD-L1-Fc protein [13]): 0.029 mg/L
IC50 (human PD-L1-Fc protein [14]): 0.163 mg/L
B4: Hu47C6A3-3 (antibody, V domains shown)
VH: B3 VH with I49M, V68I
VL: B3 VL
notes: humanized

EC50 [10]: 0.291 nM
Kd [4]: 0.48 nM
koff [4]: 0.000593 s⁻¹
kon [4]: 1.24e+06 M⁻¹ s⁻¹
EC50 (human PD-L1-Fc protein [5]): 0.00963 mg/L
IC50 (human PD-L1-Fc protein [6]): 0.0349 mg/L
IC50 (human PD-L1-Fc protein [7]): 0.141 mg/L
B5: Hu47C6A3-1 (antibody, V domains shown)
VH: B3 VH with R72V
VL: B3 VL
notes: humanized

Kd [2]: 0.107 nM
koff [2]: 6.61e-05 s⁻¹
kon [2]: 615000 M⁻¹ s⁻¹
EC50 [15]: 0.1 nM
Kd [4]: 0.0935 nM
koff [4]: 5.31e-05 s⁻¹
kon [4]: 568000 M⁻¹ s⁻¹
EC50 (human PD-L1-Fc protein [11]): 0.00705 mg/L
IC50 (human PD-L1-Fc protein [8]): 0.114 mg/L
IC50 (human PD-L1-Fc protein [9]): 0.285 mg/L
B6: Hu89C10H8-7 (antibody, V domains shown)
VH: EVQLVESGGGLVKPGGSLRLSCAASGFTFSNYWMTWIRQAPGKGLEWVASITNTGSSTFYPDSVKGRFTISRDNAKNSLYLQMNSLRAEDTAVYYCTRDTTIAPFDYWGQGTMVTVSS
VL: DIQMTQSPSSLSASVGDRVTITCKASQNLNEYLNWYQQKPGKAPKRLIYKTNTLQAGIPSRFSGSGSGTDYTLTISSLQPEDFATYYCSQYNSGNTFGQGTKLEIK
notes: humanized

Kd [2]: 0.0954 nM
koff [2]: 5.94e-05 s⁻¹
kon [2]: 623000 M⁻¹ s⁻¹
EC50 [15]: 0.127 nM
Kd [4]: 0.0962 nM
koff [4]: 5.41e-05 s⁻¹
kon [4]: 562000 M⁻¹ s⁻¹
EC50 (human PD-L1-Fc protein [5]): 0.00683 mg/L
IC50 (human PD-L1-Fc protein [6]): 0.111 mg/L
IC50 (human PD-L1-Fc protein [7]): 0.353 mg/L
B7: Hu89C10H8-4 (antibody, V domains shown)
VH: B6 VH with N77S
VL: B6 VL with I58V
notes: humanized

Kd [2]: 0.0961 nM
koff [2]: 6.73e-05 s⁻¹
kon [2]: 700000 M⁻¹ s⁻¹
EC50 [15]: 0.151 nM
Kd [4]: 0.0983 nM
koff [4]: 5.54e-05 s⁻¹
kon [4]: 564000 M⁻¹ s⁻¹
EC50 (human PD-L1-Fc protein [11]): 0.00878 mg/L
IC50 (human PD-L1-Fc protein [13]): 0.11 mg/L
IC50 (human PD-L1-Fc protein [14]): 0.275 mg/L
B8: Hu89C10H8-11 (antibody, V domains shown)
VH: B6 VH
VL: B6 VL with T69I
notes: humanized
